The record followed here is the supplement of paper PMC9112550, “Optimization of the antimicrobial peptide Bac7 by deep mutational scanning” (BMC Biology, 2022).

The test system of this data set is Escherichia coli TOP10. As to the kind of experiment: shrunken log2 fold change of peptide-encoding DNA abundance (4.5 h post-induction vs induction); higher = less antimicrobial activity (less host growth inhibition). Particulars: time post-induction: 4.5 h; library: site-saturation at positions 5, 18, 19, 20.
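Note: peptides expressed intracellularly from a pBAD plasmid library in pooled LB shake-flask culture, induced with 0.3% L-arabinose, DNA abundance read by NGS, three biological replicates, DESeq2 with apeglm shrinkage.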

Regarding RRIRYRPPRLPRPRPRPFCCPRP, the “shrunken log2 fold change” value is -0.509. Under RRIRVRPPRLPRPRPRPWPYPRP stands -0.197; under RRIRGRPPRLPRPRPRPKQYPRP, 0.234. Under RRIRCRPPRLPRPRPRPWAVPRP stands 0.0183; under RRIRTRPPRLPRPRPRPGWKPRP, 0.262. On to RRIRSRPPRLPRPRPRPPCRPRP, for which the “shrunken log2 fold change” value is 0.426. Under RRIRNRPPRLPRPRPRPQCCPRP stands -0.0308; under RRIRARPPRLPRPRPRPKVTPRP, 0.0237; under RRIRNRPPRLPRPRPRPSTYPRP, -0.318. For the sequence RRIRPRPPRLPRPRPRPMQRPRP, the “shrunken log2 fold change” value was 0.195.

For RRIRMRPPRLPRPRPRPEIHPRP, the “shrunken log2 fold change” value is 0.176. The result for RRIRHRPPRLPRPRPRPCGLPRP reads -0.0199; that for RRIRERPPRLPRPRPRPPCCPRP, 0.00664. Under RRIRGRPPRLPRPRPRPSISPRP stands 0.0894; under RRIRARPPRLPRPRPRPGRQPRP, 0.706; under RRIRMRPPRLPRPRPRPFDMPRP, -0.192. The result for RRIRERPPRLPRPRPRPFPCPRP reads -0.0816; that for RRIRVRPPRLPRPRPRPHGFPRP, -0.017; that for RRIRGRPPRLPRPRPRPHMFPRP, 0.445.

As for RRIRARPPRLPRPRPRPCYQPRP, the “shrunken log2 fold change” value was -0.232. Under RRIRHRPPRLPRPRPRPWSTPRP stands -0.0631; under RRIRYRPPRLPRPRPRPWMYPRP, -0.00277; under RRIRTRPPRLPRPRPRPYQMPRP, 0.0528. Consider RRIRARPPRLPRPRPRPFKNPRP, for which the “shrunken log2 fold change” value is -0.193. The result for RRIRGRPPRLPRPRPRPPNCPRP reads 0.266; that for RRIRYRPPRLPRPRPRPERVPRP, -0.0107. Under RRIRHRPPRLPRPRPRPQYMPRP stands -0.252; under RRIRSRPPRLPRPRPRPFNGPRP, -0.0626.

With RRIRWRPPRLPRPRPRPDILPRP, the “shrunken log2 fold change” value was 0.0776.

Regarding RRIRTRPPRLPRPRPRPYEEPRP, the “shrunken log2 fold change” value is -0.573.

Take RRIRLRPPRLPRPRPRPFDCPRP: the “shrunken log2 fold change” value came to 0.00355. Under RRIRSRPPRLPRPRPRPPRIPRP stands 0.132; under RRIRMRPPRLPRPRPRPSFWPRP, 0.459; under RRIRSRPPRLPRPRPRPQQDPRP, -0.164.

Consider RRIRVRPPRLPRPRPRPCDHPRP, for which the “shrunken log2 fold change” value was -0.338. Under RRIRFRPPRLPRPRPRPKACPRP stands -0.174. Under RRIRNRPPRLPRPRPRPFNIPRP stands 0.0411; under RRIRERPPRLPRPRPRPSHYPRP, -0.611; under RRIRYRPPRLPRPRPRPPHRPRP, -0.0877. The result for RRIRFRPPRLPRPRPRPLLLPRP reads -0.443; that for RRIRDRPPRLPRPRPRPYYEPRP, -0.226; that for RRIRGRPPRLPRPRPRPLEMPRP, 0.998. As for RRIRMRPPRLPRPRPRPLFAPRP, the “shrunken log2 fold change” value is 0.556. The result for RRIRRRPPRLPRPRPRPMKEPRP reads 0.135; that for RRIRQRPPRLPRPRPRPCYWPRP, -0.229. The result for RRIRFRPPRLPRPRPRPGVAPRP reads 0.292. The result for RRIRCRPPRLPRPRPRPELQPRP reads 0.251.

In the case of RRIRSRPPRLPRPRPRPPLTPRP, the “shrunken log2 fold change” value worked out at 0.367. Under RRIRIRPPRLPRPRPRPAGCPRP stands -0.0691. The result for RRIRMRPPRLPRPRPRPKRFPRP reads 0.483. The result for RRIRIRPPRLPRPRPRPTKIPRP reads -0.158; that for RRIRTRPPRLPRPRPRPNNCPRP, -0.0675. As to RRIRDRPPRLPRPRPRPMWAPRP, the “shrunken log2 fold change” value was -0.0235.

With RRIRNRPPRLPRPRPRPEYKPRP, the “shrunken log2 fold change” value was -0.203.

With RRIRHRPPRLPRPRPRPFVWPRP, the “shrunken log2 fold change” value is -0.0616. Under RRIRKRPPRLPRPRPRPTFYPRP stands 0.11. The result for RRIRNRPPRLPRPRPRPEVEPRP reads 0.154; that for RRIRKRPPRLPRPRPRPWTEPRP, -0.172; that for RRIRGRPPRLPRPRPRPLVMPRP, 0.263. Under RRIRERPPRLPRPRPRPGMSPRP stands 0.0438; under RRIRRRPPRLPRPRPRPVWGPRP, 0.359. For RRIRIRPPRLPRPRPRPRHGPRP, the “shrunken log2 fold change” value was -0.136. Under RRIRHRPPRLPRPRPRPTKEPRP stands -0.0586; under RRIRSRPPRLPRPRPRPTNCPRP, 0.0777.

Take RRIRTRPPRLPRPRPRPPTIPRP: the “shrunken log2 fold change” value was -0.248. The result for RRIRPRPPRLPRPRPRPDCWPRP reads 0.543. Under RRIRFRPPRLPRPRPRPLQDPRP stands 0.118. Under RRIRFRPPRLPRPRPRPVEAPRP stands -0.103; under RRIRNRPPRLPRPRPRPLNAPRP, -0.662. On to RRIRFRPPRLPRPRPRPKRQPRP, for which the “shrunken log2 fold change” value was 0.401. Consider RRIRKRPPRLPRPRPRPPTCPRP, for which the “shrunken log2 fold change” value stood at 0.217. The result for RRIRWRPPRLPRPRPRPTLEPRP reads 0.608.

Regarding RRIRTRPPRLPRPRPRPSEPPRP, the “shrunken log2 fold change” value is -0.295. In the case of RRIRDRPPRLPRPRPRPTEEPRP, the “shrunken log2 fold change” value was 0.355.

Consider RRIRNRPPRLPRPRPRPNFKPRP, for which the “shrunken log2 fold change” value is -0.0826. The result for RRIRQRPPRLPRPRPRPKFHPRP reads -0.0648; that for RRIRWRPPRLPRPRPRPWAPPRP, 0.479; that for RRIRKRPPRLPRPRPRPCTHPRP, -0.14. The result for RRIRIRPPRLPRPRPRPNIMPRP reads -0.947; that for RRIRGRPPRLPRPRPRPYNCPRP, -0.0269; that for RRIRMRPPRLPRPRPRPIIDPRP, -0.399. On to RRIRRRPPRLPRPRPRPFMHPRP, for which the “shrunken log2 fold change” value stood at 0.0444.

For RRIRSRPPRLPRPRPRPPYNPRP, the “shrunken log2 fold change” value is -0.602. RRIRRRPPRLPRPRPRPTIKPRP: the “shrunken log2 fold change” value is -0.0992. The result for RRIRQRPPRLPRPRPRPSPFPRP reads 0.0122; that for RRIRPRPPRLPRPRPRPDNEPRP, -0.0784. The result for RRIRQRPPRLPRPRPRPTTSPRP reads 0.1. Under RRIRFRPPRLPRPRPRPDHNPRP stands -0.911; under RRIRARPPRLPRPRPRPYKQPRP, -0.295; under RRIRSRPPRLPRPRPRPILWPRP, -0.0848. On to RRIRWRPPRLPRPRPRPSCSPRP, for which the “shrunken log2 fold change” value is -0.349.
